The values below come from patent publication US20240010683A1, “Peptide Inhibitors of Human Mitochondrial Fission Protein 1 and Methods of Use” (The Medical College of Wisconsin, Inc., priority 2020, published 2024).

“And” between values parts separate entries of the source, which are not always exact repeats. Identical values can stand only once.

For the assay, the target named is T1, recombinant human mitochondrial fission protein 1 (Fis1) (human), Q9Y3D6.
T1 chain: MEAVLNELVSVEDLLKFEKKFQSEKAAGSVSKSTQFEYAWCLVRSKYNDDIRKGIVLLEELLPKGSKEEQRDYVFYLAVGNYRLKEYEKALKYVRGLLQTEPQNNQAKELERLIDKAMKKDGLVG

For orientation: Kd means a measure of binding affinity in units of concentration.

With SHKHDPLPYPHFLL (modifications not checked) [pep213], the Kd was 7 µM and 3.3 µM.
